# Reference: paper PMC8431786, “In Search of Monocot Phosphodiesterases: Identification of a Calmodulin Stimulated Phosphodiesterase from Brachypodium distachyon” (International Journal of Molecular Sciences, 2021)
# B1: BDPDE1 (Brachypodium distachyon) (protein)
# chain: MWPASKTQMHMFCLCRLDQPSCLVIGSARSINASTPKELSQNASSREIENRLLRVRRSATTGRSEPLARFNHPIQFQHARPPPAPAHGAHEGKKMAAAAVRRAEELVEREMSGRDASHDAAHALRVRDLALSLAAEQGLSSPDRLLIVELAALLHDIGDYKYTKDNMEDMSIVERFLQDVGLEKGQREEIVSIITGMGFKNEVSGKAAEPTLEFAVVQDADRLDAIGAIGVARCFTYGGSKNSALHDPKVLPRDNLSKEKYMSKEKQTSINHFHEKLFKLKDMMKTEAGKRRAEKRHKFMEDFVAEFYEEWSGRA
# notes: GST-BDPDE1 fusion (pGEX-6P-2, N-terminal GST kept), cDNA from leaf and stalk RNA, E. coli BL21(DE3) pLysS, glutathione-Sepharose
# Substrate: [H][C@@]12COP(=O)(O)O[C@@]1([H])[C@@H](O)[C@H](n1cnc3c(=O)[nH]c(N)nc31)O2
# Assay: LC-MS/MS of GMP formed, Michaelis-Menten fit
# Assay type: biochemical, Brachypodium distachyon
# Settings: 3 mM Tris-HCl pH 8.0, 37 °C, 25 min, 0.5 mM MgCl2 and MnCl2, 0.1% 2-mercaptoethanol, no calmodulin
protein,measurement,value
B1,Km,113.3 µM
